From patent publication US20260191907A1 (INSTITUT CURIE, published 2026)
Values belong to the binder of their own block, whether it stands above or below them.

What was measured:
[1] = biological target: T1, FGFR2 expressed on Rh4-FR4ko cells (UniProt P21802 22-821, limits assumed); test: flow cytometry on Rh4-FR4ko cells, which express FGFR1 and FGFR2
T1 construct: whole, on cells; also called FGFR2 on Rh4 cells
Description: The cells were incubated for 1 h with nanobodies at 10 μM (A8, B1, B5, F8, mCh) followed by stimulation of FGFR4 with 50 nM FGF19 for 10 min. Control cells (C) were either not stimulated or stimulated with FGF19 in absence of the nanobodies. The cell lysates were analysed by western blot with anti phospho ERK1/2 antibody. Total Erk1/2 levels are shown as loading control.
Binding validation of selected phages, recombinant nanobodies and decorated liposomes was performed on Rh4-FR4 wt and Rh4-FR4ko cells. Specificity of selected phage clones binding to FGFR4 was determined by flow cytometry in 96-well plates (Becton Dickinson). Cell surface staining of Rh4-FR4 wt or Rh4-FR4ko cells was performed on ice in PBS supplemented with 1% FBS. 80 μL phages+20 μL PBS/1% milk were incubated on 1×10⁵ cells for 1 h on ice. […] Samples were analyzed after two washes by flow cytometry on a MACSQuant® cytometer (Miltenyi) and results were analyzed with FlowJo™ software (BD Biosciences, France). Phages displaying anti-mCherry nanobodies were used as negative control²⁴ and as positive control we used an anti-FGFR4 antibody (BT53, kindly provided by J. Khan lab, NCI, Bethesda, MD). For binding test of recombinant nanobodies, cells were detached with Accutase® (Stemcell Technologies) and washed with PBS. All following steps were performed on ice: 4×10⁵ cells were incubated with nanobody concentrations of 30 μg/ml for 1 h, washed once with PBS and incubated for an additional 30 min with anti His-tag FITC labeled antibody (LS-C57341, LSBioscience, diluted 1:10). The cells were washed once more with PBS and analyzed. Targeting liposomes were added at 0.5 mM final lipid concentration to cells in 96-well plates and incubated for 2 h at 37° C. and 5% CO₂. The cells were washed twice with PBS and detached with Accutase®.
Validation of the binding of recombinant nanobodies to cell-surface expressed FGFR4 was performed with Rh4-FR4 wt and Rh4-FR4ko cells by flow cytometry.

[2] = biological target: T2, Recombinant FGFR4 (G&P Biosciences) (human, UniProt P22455 22-369); test: SPR (BIAcore T200), single cycle kinetics, FGFR4 amine-immobilised, nanobody as analyte, heterogeneous ligand model, component 2 (koff2); heterogeneous ligand model, component 2 (koff2)
T2 construct: Bought protein; the SPR method says only 'Recombinant; also called rFGFR4; extracellular FGFR4
T2 sequence: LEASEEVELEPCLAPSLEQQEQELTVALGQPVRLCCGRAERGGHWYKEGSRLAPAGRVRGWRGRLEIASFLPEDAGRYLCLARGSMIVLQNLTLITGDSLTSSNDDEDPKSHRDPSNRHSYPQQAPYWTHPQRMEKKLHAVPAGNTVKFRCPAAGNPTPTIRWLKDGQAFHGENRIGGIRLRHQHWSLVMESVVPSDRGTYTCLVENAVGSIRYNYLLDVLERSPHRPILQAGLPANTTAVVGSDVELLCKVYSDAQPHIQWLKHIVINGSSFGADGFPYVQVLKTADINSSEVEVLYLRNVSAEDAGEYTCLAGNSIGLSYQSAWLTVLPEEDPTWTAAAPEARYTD
Description: FIG. 3: Affinity determination of nanobodies to recombinant protein via surface plasmon resonance spectroscopy. Single cycle kinetics analysis was performed on immobilized FGFR4 through covalent amine binding on the dextran based sensor chip. The analytes A8, B1, B5, F8 and mCh were injected in 5 different concentrations followed by a dissociation phase. A final dissociation step was added after the last injection step to determine Koff rates for the KD calculations. The black curves represent the measured data and red curves show the fit analysis (heterogeneous ligand model) performed with the BIAevaluation software.
Single cycle kinetics analysis was performed with the BIAcore® T200 instrument (GE Healthcare) on CMD200M sensor chips (XanTec bioanalytics GmbH) activated with a mixture of 300 mM NHS (N-hydroxysuccinimide) and 50 mM EDC (N-ethyl-N′-(dimethylaminopropyl) carbodiimide). Recombinant FGFR1, FGFR2, FGFR3 and FGFR4 (G&P Biosciences) were immobilized on the activated biosensors (800 to 12′000 RU; 1 RU=1 pg/mm²) followed by a blocking step with 1M ethanolamine. […] Koff-rates were determined from a final dissociation step after the last injection. […] Binding parameters were determined with the heterogeneous ligand model fit of the BIAevaluation software. The black curves represent the measured data and red curves show the performed fit analysis. […]

T1 sequence (P21802 22-821 limits assumed): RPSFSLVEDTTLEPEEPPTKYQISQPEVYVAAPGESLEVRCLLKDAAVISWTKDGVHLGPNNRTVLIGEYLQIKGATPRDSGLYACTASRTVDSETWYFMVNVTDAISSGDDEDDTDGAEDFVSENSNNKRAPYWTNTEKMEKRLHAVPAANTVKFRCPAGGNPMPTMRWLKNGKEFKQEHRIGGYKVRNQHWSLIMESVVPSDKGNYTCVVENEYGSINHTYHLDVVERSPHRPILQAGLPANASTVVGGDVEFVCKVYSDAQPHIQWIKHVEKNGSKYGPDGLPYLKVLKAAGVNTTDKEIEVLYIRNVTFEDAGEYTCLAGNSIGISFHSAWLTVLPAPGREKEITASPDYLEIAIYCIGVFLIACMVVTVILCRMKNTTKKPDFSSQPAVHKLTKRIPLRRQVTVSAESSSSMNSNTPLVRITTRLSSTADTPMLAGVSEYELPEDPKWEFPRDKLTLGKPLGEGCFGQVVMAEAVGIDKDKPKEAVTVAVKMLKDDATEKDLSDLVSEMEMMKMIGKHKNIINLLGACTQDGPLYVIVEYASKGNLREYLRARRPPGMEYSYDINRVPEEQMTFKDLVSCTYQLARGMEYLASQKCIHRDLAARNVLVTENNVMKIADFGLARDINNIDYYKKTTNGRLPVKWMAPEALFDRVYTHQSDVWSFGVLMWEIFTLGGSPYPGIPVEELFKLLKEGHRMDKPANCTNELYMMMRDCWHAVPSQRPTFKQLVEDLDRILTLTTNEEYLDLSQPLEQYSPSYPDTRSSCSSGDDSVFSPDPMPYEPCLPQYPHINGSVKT

- binding result [1]: no binding (tested: 30 µg/ml)
B1: F8 nanobody (anti-FGFR4 sdAb, Gimli library) (VHH)
VHH: EVQLVESGGGLVQPGGSLRLSCAASGTGYALDDMGWVRQAPGKGLEWVSAISDDESMADYYADSVKGRFTISRDNSKNTVYLQMNSLRAEDTAVYYCASYKEYKYQSGHHYFAYRGQGTLVTVSS
notes: Recombinant nanobody of about 17 kDa; also called F8 sdAb; not shown: C-terminal Myc/6xHis-tag and an additional cysteine

- binding result [1]: no binding (tested: 30 µg/ml)
B2: B1 nanobody (anti-FGFR4 sdAb, NaLi-H1 library) (VHH)
VHH: EVQLQASGGGFVQPGGSLRLSCAASGYTSRSSAMGWFRQAPGKEREFVSAISDLTGYPYYYADSVKGRFTISRDNSKNTVYLQMNSLRAEDTATYYCAAYQDDKWTYGSQHGKYWGQGTQVTVSS
notes: also called B1 sdAb; not shown: C-terminal Myc/6xHis-tag and an additional cysteine

- koff [2]: 3.75e-08 s⁻¹
B3: B5 nanobody (anti-FGFR4 sdAb, NaLi-H1 library) (VHH)
VHH: EVQLQASGGGFVQPGGSLRLSCAASGRTSWLTTMGWFRQAPGKEREFVSAISSFSSKQGYYADSVKGRFTISRDNSKNTVYLQMNSLRAEDTATYYCAYASYPRHQGNGRWKDFVEYWGQGTQVTVSS
notes: Recombinant nanobody of about 17 kDa; also called B5 sdAb; not shown: C-terminal Myc/6xHis-tag and an additional cysteine
